Reference: patent US20160040149A1, “Compositions Having Dicamba Decarboxylase Activity and Methods of Use” (priority 2013, published 2016)

Experiments:
[1] = DNA shuffling libraries: 14CO2 capturing assay in 384-well format, fold activity of backbone (Megatable 2); details: relative to backbone SEQ ID NO: 133 (DDEC0201)
[2] = Saturation mutagenesis of SEQ ID NO:109: dicamba decarboxylation activity of point mutants (CO2 released), fold of backbone (Tables 7, 8, Megatable 1); details: decarboxylation activity (CO2 released) of point mutant vs unmutated backbone protein; backbone SEQ ID NO: 109

Row | Molecule | Fold Activity [1] [fold] | Fold Activity [2] [fold]
1 | 135 (protein, Dicamba decarboxylase variant) MAQGKVALEEHFAIPETLQDSAGFVPGDYWKELQHRLLDIQDTRLRLMDAHGIETMILSLAAPAVQAIPDRRKAIEIARRANDFLAEECAKRPDRFLAFAALPLQDPDAATEELQRCVNDLGFVGALVNGFSVEGDGQTPLYYDLPQYRPFWGEVEKLDVPFYLHPRNPLPQDSRIYDGHPWLLGPTWAFAQETAVHALRLMASGLFDEHPRLNIILGHLGEGLPYMMYRIDHRIAWVKLPPRYPAKRRFMDYFLENFHITTSGNFRTQTLIDAILEIGADRILFSTDWPFENIDHAADWFNATSIAEADRVKIGRTNARRLFKLDGD | 1.3 | 1.5
2 | 136 (protein, Dicamba decarboxylase variant) MAQGKVALEEHFAIPETLQDSAGFVPGDYWKELQHRLLDIQDTRLKLMDAHGIETMILSLAAPAVQAIPDRRKAIEIARRANDFLAEECAKRPDRFLAFAALPLQDPDAATEELQRCVNTLGFVGALVNGFSVEGDGQTPLYYDLPQYRPFWGEVEKLDVPFYLHPRNPLPQDSRIYDGHPWLLGPTWAFAQETAVHALRLMASGLFDEHPRLNIILGHLGEGLPYMMYRIDHRIAWVHEPPRYPAKRRFMDYFNENFHITTSGNFRTQTLIDAILEIGADRILFSTDWPFENIDHAADWFNATSIAEADRVKIGRTNARRLFKLDGA | 1.4 | 1.2
3 | 137 (protein, Dicamba decarboxylase variant) MAQGKVALEEHFAIPETLQDSAGFVPGDYWKELQHRLLDIQDTRLKLMDAHGIETMILSLAAPAVQAIPDRRKAIEIARRANDFLAEECAKRPDRFLAFAALPLQDPDAATEELQRCVNTLGFVGALVNGFSQEGDGQTPLYYDLPQYRPFWGEVEKLDVPFYLHPRNPLPQDSRIYDGHPWLLGPTWAFAQETAVHALRLMASGLFDEHPRLNIILGHMGEGLPYMMYRIDHRIAWVHEPPRYPAKRRFMDYFNENFHITTSGNFRTQTLIDAILEIGADRILFSTDWPFENIDHAADWFNATSIAEADRLKIGRTNARRLFKLDGA | 1.4 | 1.1
4 | 138 (protein, Dicamba decarboxylase variant) MAQGKVALEEHFAIPETLQDSAGFVPGDYWKELQHRLLDIQDTRLKLMDAHGIETMILSLAAPAVQAIPDRRKAIEIARRANDFLAEECAKRPDRFLAFAALPLQDPDAATEELQRCVNDLGFVGALVNGFSQEGDGQTPLYYDLPQYRPFWGEVEKLDVPFYLHPRNPLPQDSRIYDGHPWLLGPTWAFAQETAVHALRLMASGLFDEHPRLNIILGHMGEGLPYMMYRIDHRIAWVHEPPRYPAKRRFMDYFNENFHITTSGNFRTQTLIDAILEIGADRILFSTDWPFENIDHAADWFNATSIAEADRLKIGRTNARRLFKLDLD | 1.1 | 0.7
5 | 139 (protein, Dicamba decarboxylase variant) MAQGKVALEEHFAIPETLQDSAGFVPGDYWKELQHRLLDIQDTRLKLMDAHGIETMILSLAAPAVQAIPDRRKAIEIARRANDFLAEECAKRPDRFLAFAALPLQDPDAATEELQRCVNDLGFVGALVNGFSQEGDGQTPLYYDLPQYRPFWGEVEKLDVPFYLHPRNPLPQDSRIYDGHPWLLGPTWAFAQETAVHALRLMASGLFDEHPRLNIILGHMGEGLPYMMYRIDHRIAWVKLPPRYPAKRRFMDYFNENFHITTSGNFRTQTLIDAILEIGADRILFSTDWPFENIDHAADWFNATSIAEADRLKIGRTNARRLFKLDGD | 1.1 | 1.4
6 | 140 (protein, Dicamba decarboxylase variant) MAQGKVALEEHFAIPETLQDSAGFVPGDYWKELQHRLLDIQDTRLKLMDAHGIETMILSLAAPAVQAIPDRRKAIEIARRANDFLAEECAKRPDRFLAFAALPLQDPDAATEELQRCVNDLGFVGALVNGFSQEGDGQTPLYYDLPQYRPFWGEVEKLDVPFYLHPRNPLPQDSRIYDGHPWLLGPTWAFAQETAVHALRLMASGLFDEHPRLNIILGHLGEGLPYMMYRIDHRIAWVHEPPRYPAKRRFMDYFNENFHITTSGNFRTQTLIDAILEIGADRILFSTDWPFENIDHAADWFNATSIAEADRVKIGRTNARRLFKLDGA | 1.1 | 1.1
7 | 141 (protein, Dicamba decarboxylase variant) MAQGKVALEEHFAIPETLNDSAGFVPGDYWKELQHRLLDIQDTRLKLMDAHGIETMILSLAAPAVQAIPDRRKAIEIARRANDMLAEECAKRPDRFLAFAALPLQDPDAATEELQRCVNDLGFVGALVNGFSQEGDGQTPLYYDLPQYRPFWGEVEKLDVPFYLHPRNPLPQDSRIYDGHPWLLGPTWAFAQETAVHALRLMASGLFDEHPRLNIILGHMGEGLPYMMYRIDHRIAWVHEPPRYPAKRRFMDYFNENFHITTSGNFRTQTLIDAILEIGADRILFSTDWPFENIDHAADWFNATSIAEADRVKIGRTNARRLFKLDLD | 0.9 | 1.1
8 | 142 (protein, Dicamba decarboxylase variant) MAQGKVALEEHFAIPETLQDSAGFVPGDYWKELQHRLLDIQDTRLKLMDAHGIETMILSLAAPAVQAIPDRRKAIEIARRANDFLAEECAKRPDRFLAFAALPLQDPDAATEELQRTVNDLGFVGALVNGFSQEGDGQTPLYYDLPQYRPFWGEVEKLDVPFYLHPRNPLPQDSRIYDGHPWLLGPTWAFAQETAVHALRLMASGLFDEHPRLNIILGHLGEGLPYMMYRIDHRIAWVHEPPRYPAKRRFMDYFNENFHITTSGNFRTQTLIDAILEIGADRILFSTDWPFENIDHAADWFNATSIAEADRVKIGRTNARRLFKLDLD | 1.4 | 1
9 | 143 (protein, Dicamba decarboxylase variant) MAQGKVALEEHFAIPETLQDSAGFVPSEYLKELQHRLLDIQDTRLKLMDAHGIETMILSLAAPAVQAIPDRRKAIEIARRANDFLAEECAKRPDRFLAFAALPMQDVDAATEELQRCVNDLGFVGALVNGFSVEGDGQTPLYYDLPQYRPFWGEVEKLDVPFYLHPRNPLPQDSRIYDGHPWLLGPTWAFAQETAVHALRLMASGLFDEHPRLNIILGHMGEGLPYMMYRIDHRIAWVHEPPRYPAKRRFMDYFNENFHITTSGNFRTQTLIDAILEIGADRILFSTDWPFENIDHAADWFNATSIAEADRVKIGRTNARRLFKLDGD | 1.3 | 1.2
10 | 144 (protein, Dicamba decarboxylase variant) MAQGKVALEEHFAIPETLQDSAGFVPGDYWKELQHRLLDIQDTRLRLMDAHGIETMILSLAAPAVQAIPDRRKAIEIARRANDFLAEECAKRPDRFLAFAALPLQDPDAASEELQRCVNDLGFVGALVNGFSQEGDGQTPLYYDLPQYRPFWGEVEKLDVPFYLHPRNPLPQDSRIYDGHPWLLGPTWAFAQETAVHALRLMASGLFDEHPRLNIILGHMGEGLPYMMYRIDHRIAWVHEPPRYPAKRRFMDYFNENFHITTSGNFRTQTLIDAILEIGADRILFSTDWPFENIDHAADWFNATSIAEADRLKIGRTNARRLFKLDGD | 1.2 | 1.2
